# Data from the DeepSol protein solubility set.
# Assay: soluble on expression in E. coli; label from the status in PepcDB or PDB records
row,Sequence,soluble on expression in E. coli
1,MEAPEFKDFAKTMVDFIAEYLENIRERRVLPEVKPGYLKPLIPDAAPEKPEKWQDVMQDIERVIMPGVTHWHSPKFHAYFPTANSYPAIVADMLSGAIACIGFTWIASPACTELEVVMMDWLGKMLELPAEFLACSGGKGGGVIQGTASESTLVALLGAKAKKLKEVKELHPEWDEHTILGKLVGYCSDQAHSSVERAGLLGGVKLRSVQSENHRMRGAALEKAIEQDVAEGLIPFYAVVTLGTTNSCAFDYLDECGPVGNKHNLWIHVDAAYAGSAFICPEYRHLMKGIESADSFNFNPHKWMLVNFDCSAMWLKDPSWVVNAFNVDPLYLKHDMQGSAPDYRHWQIPLGRRFRALKLWFVLRLYGVENLQAHIRRHCNFAKQFGDLCVADSRFELAAEINMGLVCFRLKGSNERNEALLKRINGRGHIHLVPAKIKDVYFLRMAICSRFTQSEDMEYSWKEVSAAADEMEQEQ,soluble
2,MEAPTVLDVGCGDGARTLANLPPRSVGLDFSRAGLDLAAETVPDSRLVQGDMGSLPVTTDSVDAITAYHAVFHVQRDQHPEVYREFARVLRPGGTVLMTLPSGQFETVRRGWMGGSMFFSAPGRRATLDQLADAGFTETETVTATDPLGSDSEFVFATLADALEHHHHHH,not soluble
3,MEASEEVTMVNKGDDGKSGIRYYTTIEELSRAINAGLSLQDRRMSEEEAMEAAEHIINFFGYNDRVIDNMLEPEDRDSFYTMEDIGILQTEREETTLFDGREWRIHYWILNINKIMELANMQVDYKKKITNDEYKIYDEIPDDYWKVVE,not soluble
4,MEDESSAKYPYRESMPRAERVSMKALQDEWRHLFITRAEGENNIHNPKIPEDTNDFDDDMPIECNESEEESITGDREVFSVHHNEEDEDQEDSSQICEESEPQELPKLCRRTDKHFKELPSGLINIIKDLSLDISGLYLPQTLLTGRIDLNDEFVASIEVEDAEKSKEILRRRRERPLALRQFSHALSRAMANLRTYHYDVTTEKIERCPMRNSCKGHLKWEQMRKYRAQCKKNFKDPSLATVEDMMSK,not soluble
5,MEDIENIEEDEYGFSRNYFLAKELGGASKRSAHKLSDIHIVDEQELRETASTIEMKHSKEISELMSDYKTMYSKWVFELRCGFGLLMYGFGSKKALVEDFASASLTDYSVVVINGYLPSVNLKQVLLALAELLSELLKCKRKSSGSLSKGQETFPSRSMDDILSFLHGPQSGDKDCFICVVVHNIDGPALRDPESQQTLARLSSCSHIRLVASIDHVNAPLLWDKKMVHKQFNWLWHHVPTFAPYNVEGVFFPLVLAQGSTAQTAKTAAIVLQSLTPNGQNVFKILAEYQLSHPDEDGMPTDDLYSASRERFFVSSQVTLNSHLTEFKDHELVKTKRNSDGQECLNIPLTSDAIRQLLLDLNQ,not soluble
6,MEDIIFGKRSNVFDVNPENTVFVLIAGTSEVSTVPGITSAGATPELTRLTPAIDSEIIGEGKCLSSKDPPMTPEGIPTPAIVTKAILSLTNIRYIIVNGGFYAKPKTPFIETGLKPSNNPAVKTAIEDLDAAIHAGEHIGRLLDGVFENIILAESVPGGTTTAYAVLKAIGINAKTSSSMKEDPFSIKEKIAEMSFRRKLEKSPLGAVKEYGDNMMAVSLGISSSVKRSKIIFGGGTQMATVMYLDRLINGMRDRYISTTGWVYYHRTELFSDLGLSDYLAVSAMDFSGMKHPGLRYYQYGHVREGTGMGAAFLLARLMNFEAEAIYKSVDDFYEQFI,not soluble
7,MEDYIKNWNKIISNCSFDNTYKMAWAKAIVETAISKDIDSALIISFEEIAELFLKYYWNQTIYFNLTQGSSLKKIPEALKYTKNLIDLYYAKKGDYFPQRYEKIIFEDFGIESEKNKTIKKIVKTLGQDVSWRFMNLSGETYPLYELVENQVVLSLENAKLLKKYSDFLFPMINYRWTQMLESFNHSPRISSKVRAIDEDSIKKRNNLNKFREFLDLEFSDNKRYCFYCGKEIVDDDLTIDHVIPWSFMYSDDIWNLVYCHRSENSSKSNRIPEETDVKALECRNKLLLEKLTENKISSKRVDELQLAIEKDYVKKFWISSRGLEHHHHHH,not soluble
8,MEEKQILCVGLVVLDVISLVDKYPKEDSEIRCLSQRWQRGGNASNSCTVLSLLGAPCAFMGSMAPGHVADFLVADFRRRGVDVSQVAWQSKGDTPSSCCIINNSNGNRTIVLHDTSLPDVSATDFEKVDLTQFKWIHIEGRNASEQVKMLQRIDAHNTRQPPEQKIRVSVEVEKPREELFQLFGYGDVVFVSKDVAKHLGFQSAEEALRGLYGRVRKGAVLVCAWAEEGADALGPDGKLLHSDAFPPPRVVDTLGAGDTFNASVIFSLSQGRSVQEALRFGCQVAGKKCGLQGFDGIV,soluble
9,MEETNAFSAFNQLLMSQNVVSPTKQPMELTNEKLMEFVRNAMQNQQGLPEVPNIIPSALPSMLSQIPTQPMPQMPVVIQTSQMNDVMGDQMLKASPSASSDMSSLDSDVADHPMTMMMQQQQDFQNPLQQLTIDSSANIAAGVNGNTEQRSSGRHETWLECFNTTKFAEYEALLFSVYVAERTDRKYDGWTYFDCLHRLQSKCRYRVRAKKQDEFYIIEEKGVHNHGAVEPVGQAGSHAGLPKTIREIVDRSYNENWPVEARTIKVDEEIQRLGLPENPRLGRQIDNRLAYLRRVKNLHETRRIQDQVNGTMVIKDPVKEAMLQALMEQNGGQLTVGQGFVDQIIANQGIPEMPIKKEEPTQPVESMEMAEQVAKPLAMNPSPDFFQFLQNQKLSHEHEQQQQQLHAAILAQAQAHAQAQAQAQQNLMESQKNIHQ,not soluble
10,MEFQKKKQKVIQVKEIKFRPGTDEGDYQVKLRSLIRFLEEGDKAKITLRFRGREMAHQQIGMEVLNRVKDDLQELAVVESFPTKIEGRQMIMVLAPKKKQ,soluble
11,MEFREQVLNLLAEVAENDIVKENPDVEIFEEGIIDSFQTVGLLLEIQNKLDIEVSIMDFDRDEWATPNKIVEALEELR,not soluble
12,MEGERMNAFPSTMMDEELNLWDFLERAAALFGRKEVVSRLHTGEVHRTTYAEVYQRARRLMGGLRALGVGVGDRVATLGFNHFRHLEAYFAVPGMGAVLHTANPRLSPKEIAYILNHAEDKVLLFDPNLLPLVEAIRGELKTVQHFVVMDEKAPEGYLAYEEALGEEADPVRVPERAACGMAYTTGTTGLPKGVVYSHRALVLHSLAASLVDGTALSEKDVVLPVVPMFHVNAWCLPYAATLVGAKQVLPGPRLDPASLVELFDGEGVTFTAGVPTVWLALADYLESTGHRLKTLRRLVVGGSAAPRSLIARFERMGVEVRQGYGLTETSPVVVQNFVKSHLESLSEEEKLTLKAKTGLPIPLVRLRVADEEGRPVPKDGKALGEVQLKGPWITGGYYGNEEATRSALTPDGFFRTGDIAVWDEEGYVEIKDRLKDLIKSGGEWISSVDLENALMGHPKVKEAAVVAIPHPKWQERPLAVVVPRGEKPTPEELNEHLLKAGFAKWQLPDAYVFAEEIPRTSAGKFLKRALREQYKNYYGGA,soluble
13,MEGGMKRVVLAFGTRPEATKMAPVYLALRGIPGLKPLVLLTGQHREQLRQALSLFGIQEDRNLDVMQERQALPDLAARILPQAARALKEMGADYVLVHGDTLTTFAVAWAAFLEGIPVGHVEAGLRSGNLKEPFPEEANRRLTDVLTDLDFAPTPLAKANLLKEGKREEGILVTGQTGVDAVLLAAKLGRLPEGLPEGPYVTVTMHRRENWPLLSDLAQALKRVAEAFPHLTFVYPVHLNPVVREAVFPVLKGVRNFVLLDPLEYGSMAALMRASLLLVTDSGGLQEEGAALGVPVVVLRNVTERPEGLKAGILKLAGTDPEGVYRVVKGLLENPEELSRMRKAKNPYGDGKAGLMVARGVAWRLGLGPRPEDWLP,soluble
14,MEGIDHLADERNKAEFDVEDMKIVWAGSRHAFEVSDRIARLVASDPVFEKSNRARLSRKELFKSTLRKCAHAFKRIIELRLNEEEAGRLRHFIDQPAYVDLHWGMFVPAIKGQGTEEQQKKWLSLANKMQIIGCYAQTELGHGSNVQGLETTATLDPKTDEFVIHTPTQTASKWWPGGLGKVSTHAVVYARLITNGKDYGIHGFIVQLRSLEDHSPLPNITVGDIGTKMGNGAYNSMDNGFLMFDHVRIPRDQMLMRLSKVTREGEYVPSDVPKQLVYGTMVYVRQTIVADASNALSRAVCIATRYSAVRRQFGAHNGGIETQVIDYKTQQNRLFPLLASAYAFRFVGEWLKWLYTDVTERLAASDFATLPEAHACTAGLKSLTTTATADGIEECRKLCGGHGYLWCSGLPELFAVYVPACTYEGDNVVLQLQVARFLMKTVAQLGSGKVPVGTTAYMGRAAHLLQCRSGVQKAEDWLNPDVVLEAFEARALRMAVTCAKNLSKFENQEQGFQELLADLVEAAIAHCQLIVVSKFIAKLEQDIGGKGVKKQLNNLCYIYALYLLHKHLGDFLSTNCITPKQASLANDQLRSLYTQVRPNAVALVDAFNYTDHYLNSVLGRYDGNVYPKLFEEALKDPLNDSVVPDGYQEYLRPVLQQQL,soluble
15,MEGIPGQRDGVYWLPPAEDGKDPATPWWLCSPLHVLAETRDASQSNWGRLLEWRDNDGHPHRWACPVEMLAASDTAEFRRELVRGGLTMSTSQKARQKLVDYVLSHRQAAATRLRCVSRIGWHDVRYVLPGEVHGEQDGEGVIYQGADSGDFDRAGTLQEWQTHIAAAAAGNSRIVFAISVAFAGVLADMAGESGGGFHFVGTTSKGKTSTLLDPAASVWGNPDQFAKKWRTTQNGLEGLCLGRNDNLLILDELAQIAPADAGGAAYLIANGQAKARMTKEGGNRPAHTWRVMLLSAGEIDLAQHMAEAGKSAKGGQIARLPAIPADAGAGMGTLEQLHQHPSGQAFADAMKAYSRQYYGTAGPAFLAALTPPECMDEIRRDIKDGVTGLIEYLGVPAGAAQEVGRVAARFALVAFAGELATRYGVTGWKPGEAVQAARRCFREWLAENHTGMAADDRALFAQVSGFMQTHSSTRFPPHDAAPEVLARYLNRAGFTFIDEQGTQQFWVLSEPFKKELCRGYTPLIAARSLLRAGWLLAGDTEGNTRRHTRKKRIKALDSATVNVYVLTSTVLEGEELEHHHHHH,not soluble
16,MEGLKLSEAELMIFIHPSQSRNVFQGICRELSSLLFQYNETFDGVLLAYDATVKSKQAKILTGLHPYFGVRVNTRLLLFDPKPKSFVEGKIVKISPESIHVIVLGFSAAVITDVDIREEFKYRVRDGEGSFVSRSHKRHALKLGTMLRLQVQSFDEEVMHIAGSLLPENTGCVKWLEKKSEEALPTDRDHKRRKLA,not soluble
17,MEGSVSEFLTVRLSSQKEADIPWLVWSAEQQEVIASGQVAGWEALHEIESYADQRSVVVLLAASDLILTSVEIPPGASRQLENMLPYLLEDEIAQDVEDVHFCVLSKGRETADVVGVDRLWLRACLDHLKACGFDVKRVLPDVLAIPRPEHGLAALQLGDEWLVRKSTTQGMAVDAQWLSLLAASDWVQNEGEYLPLQALTPLPELSLAETQEWRYEPSGLVMQLLTQEALTSKFNLLTGSFKLKSLEHHHHHH,soluble
18,MEGTMTCIYESVITGVGSEVQYFIEENMVVIFNDTVPDDLKSIGVIHKHTELQADVAAGDVLEVNGACFRILFVGDKVNDTLREIGHCTIAFNGETNADLPGTLCVEKKPLPDFVTGATIKFIKE,not soluble
19,MEGVKKIKNPSTVKDELLELMFRIYRSTNGKYPALEWVKRKPNPNDFNGFREVYEPFLKFRLSQEFDELYTYQKDNRIIGTIALVYKRIKEKGIWWVPEELMNEKVGLIEFFVVDPEFQGKGIGSTLLEFAVKRLRSLGKDPYVVTFPNLEAYSYYYMKKGFREIMRYKEFVILKFNHKKFQLEHHHHHH,soluble
